Reference: patent US20250382383A1

Molecular target: soluble recombinant TGF-β1 (UniProt P01137)
Test: cell-based or functional assay

soluble recombinant TGF-β1, sequence (P01137 279-390 limits assumed): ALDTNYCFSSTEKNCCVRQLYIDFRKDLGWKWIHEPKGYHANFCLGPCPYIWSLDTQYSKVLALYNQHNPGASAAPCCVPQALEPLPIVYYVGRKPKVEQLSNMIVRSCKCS
TGF-beta dominant negative receptor (TGFβ DNR), sequence (P37173 23-194 limits assumed): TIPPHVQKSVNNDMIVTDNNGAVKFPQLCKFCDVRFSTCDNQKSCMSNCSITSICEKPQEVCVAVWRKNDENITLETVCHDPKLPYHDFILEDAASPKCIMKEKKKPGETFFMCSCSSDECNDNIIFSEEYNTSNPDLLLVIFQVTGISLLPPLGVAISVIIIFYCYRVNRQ

**Q.** “TGF-beta dominant negative receptor (TGFβ DNR) (from UniProt P37173 23-194)” was tested. Which pSMAD2 (MFI/µg protein), TGFβ +; CAR-DNR T cells; Donor 1 (MFI/µg protein) did it give?
**A.** Its pSMAD2 (MFI/µg protein), TGFβ +; CAR-DNR T cells; Donor 1 (MFI/µg protein) is 2210.

**Q.** What about the pSMAD2 (MFI/µg protein), TGFβ +; Tri-2A T cells; Donor 1 (MFI/µg protein) of the same substance?
**A.** The pSMAD2 (MFI/µg protein), TGFβ +; Tri-2A T cells; Donor 1 (MFI/µg protein) was 1970.

**Q.** And the pSMAD2 (MFI/µg protein), TGFβ +; Tri-2A T cells; Donor 2 (MFI/µg protein)?
**A.** The pSMAD2 (MFI/µg protein), TGFβ +; Tri-2A T cells; Donor 2 (MFI/µg protein) was 2080.

**Q.** What about the pSMAD2 (MFI/µg protein), TGFβ +; Tri-2A T cells; Donor 3 (MFI/µg protein) of the same substance?
**A.** Its pSMAD2 (MFI/µg protein), TGFβ +; Tri-2A T cells; Donor 3 (MFI/µg protein) is 1730.

**Q.** And the pSMAD2 (MFI/µg protein), TGFβ +; Tri-IRES T cells; Donor 1 (MFI/µg protein)?
**A.** The pSMAD2 (MFI/µg protein), TGFβ +; Tri-IRES T cells; Donor 1 (MFI/µg protein) was 3240.

**Q.** And the pSMAD2 (MFI/µg protein), TGFβ +; Tri-IRES T cells; Donor 2 (MFI/µg protein)?
**A.** The pSMAD2 (MFI/µg protein), TGFβ +; Tri-IRES T cells; Donor 2 (MFI/µg protein) was 3400.

**Q.** What about the pSMAD2 (MFI/µg protein), TGFβ +; Tri-IRES T cells; Donor 3 (MFI/µg protein) of the same substance?
**A.** The pSMAD2 (MFI/µg protein), TGFβ +; Tri-IRES T cells; Donor 3 (MFI/µg protein) was 2270.

**Q.** And the pSMAD2 (MFI/µg protein), TGFβ +; Tri-mSCV T cells; Donor 1 (MFI/µg protein)?
**A.** Its pSMAD2 (MFI/µg protein), TGFβ +; Tri-mSCV T cells; Donor 1 (MFI/µg protein) is 2480.

**Q.** What about the pSMAD2 (MFI/µg protein), TGFβ +; Tri-mSCV T cells; Donor 2 (MFI/µg protein) of the same substance?
**A.** The pSMAD2 (MFI/µg protein), TGFβ +; Tri-mSCV T cells; Donor 2 (MFI/µg protein) was 1720.

**Q.** And the pSMAD2 (MFI/µg protein), TGFβ +; Tri-mSCV T cells; Donor 3 (MFI/µg protein)?
**A.** The pSMAD2 (MFI/µg protein), TGFβ +; Tri-mSCV T cells; Donor 3 (MFI/µg protein) was 1200.

**Q.** What about the pSMAD2/3 (MFI CAR+), TGFb +; CAR-DNR T cells; Donor 1 of the same substance?
**A.** Its pSMAD2/3 (MFI CAR+), TGFb +; CAR-DNR T cells; Donor 1 is 86.9 MFI.

**Q.** And the pSMAD2/3 (MFI CAR+), TGFb +; CAR-DNR T cells; Donor 2?
**A.** Its pSMAD2/3 (MFI CAR+), TGFb +; CAR-DNR T cells; Donor 2 is 105 MFI.

**Q.** And the pSMAD2/3 (MFI CAR+), TGFb +; CAR-DNR T cells; Donor 3?
**A.** Its pSMAD2/3 (MFI CAR+), TGFb +; CAR-DNR T cells; Donor 3 is 106 MFI.

**Q.** And the pSMAD2/3 (MFI CAR+), TGFb +; Tri-2A T cells; Donor 1?
**A.** The pSMAD2/3 (MFI CAR+), TGFb +; Tri-2A T cells; Donor 1 was 106 MFI.

**Q.** And the pSMAD2/3 (MFI CAR+), TGFb +; Tri-2A T cells; Donor 2?
**A.** The pSMAD2/3 (MFI CAR+), TGFb +; Tri-2A T cells; Donor 2 was 208 MFI.

**Q.** What about the pSMAD2/3 (MFI CAR+), TGFb +; Tri-2A T cells; Donor 3 of the same substance?
**A.** The pSMAD2/3 (MFI CAR+), TGFb +; Tri-2A T cells; Donor 3 was 189 MFI.

**Q.** What about the pSMAD2/3 (MFI CAR+), TGFb +; Tri-IRES T cells; Donor 1 of the same substance?
**A.** The pSMAD2/3 (MFI CAR+), TGFb +; Tri-IRES T cells; Donor 1 was 70.6 MFI.

**Q.** And the pSMAD2/3 (MFI CAR+), TGFb +; Tri-IRES T cells; Donor 2?
**A.** The pSMAD2/3 (MFI CAR+), TGFb +; Tri-IRES T cells; Donor 2 was 89.7 MFI.

**Q.** And the pSMAD2/3 (MFI CAR+), TGFb +; Tri-IRES T cells; Donor 3?
**A.** Its pSMAD2/3 (MFI CAR+), TGFb +; Tri-IRES T cells; Donor 3 is 89.4 MFI.

**Q.** What about the pSMAD3 (MFI/µg protein), TGFβ +; CAR-DNR T cells; Donor 1 (MFI/µg protein) of the same substance?
**A.** Its pSMAD3 (MFI/µg protein), TGFβ +; CAR-DNR T cells; Donor 1 (MFI/µg protein) is 621.

**Q.** What about the pSMAD3 (MFI/µg protein), TGFβ +; Tri-2A T cells; Donor 1 (MFI/µg protein) of the same substance?
**A.** Its pSMAD3 (MFI/µg protein), TGFβ +; Tri-2A T cells; Donor 1 (MFI/µg protein) is 561.

**Q.** What about the pSMAD3 (MFI/µg protein), TGFβ +; Tri-2A T cells; Donor 2 (MFI/µg protein) of the same substance?
**A.** The pSMAD3 (MFI/µg protein), TGFβ +; Tri-2A T cells; Donor 2 (MFI/µg protein) was 488.

**Q.** And the pSMAD3 (MFI/µg protein), TGFβ +; Tri-2A T cells; Donor 3 (MFI/µg protein)?
**A.** Its pSMAD3 (MFI/µg protein), TGFβ +; Tri-2A T cells; Donor 3 (MFI/µg protein) is 405.

**Q.** And the pSMAD3 (MFI/µg protein), TGFβ +; Tri-IRES T cells; Donor 1 (MFI/µg protein)?
**A.** The pSMAD3 (MFI/µg protein), TGFβ +; Tri-IRES T cells; Donor 1 (MFI/µg protein) was 942.

**Q.** And the pSMAD3 (MFI/µg protein), TGFβ +; Tri-IRES T cells; Donor 2 (MFI/µg protein)?
**A.** The pSMAD3 (MFI/µg protein), TGFβ +; Tri-IRES T cells; Donor 2 (MFI/µg protein) was 788.

**Q.** And the pSMAD3 (MFI/µg protein), TGFβ +; Tri-IRES T cells; Donor 3 (MFI/µg protein)?
**A.** The pSMAD3 (MFI/µg protein), TGFβ +; Tri-IRES T cells; Donor 3 (MFI/µg protein) was 643.

**Q.** What about the pSMAD3 (MFI/µg protein), TGFβ +; Tri-mSCV T cells; Donor 1 (MFI/µg protein) of the same substance?
**A.** Its pSMAD3 (MFI/µg protein), TGFβ +; Tri-mSCV T cells; Donor 1 (MFI/µg protein) is 660.

**Q.** What about the pSMAD3 (MFI/µg protein), TGFβ +; Tri-mSCV T cells; Donor 2 (MFI/µg protein) of the same substance?
**A.** The pSMAD3 (MFI/µg protein), TGFβ +; Tri-mSCV T cells; Donor 2 (MFI/µg protein) was 460.

**Q.** What about the pSMAD3 (MFI/µg protein), TGFβ +; Tri-mSCV T cells; Donor 3 (MFI/µg protein) of the same substance?
**A.** The pSMAD3 (MFI/µg protein), TGFβ +; Tri-mSCV T cells; Donor 3 (MFI/µg protein) was 377.
